Results from paper PMC4140816 (PLoS ONE, 2014).
Ends that are not written are not given here.

B1: VSL12 peptide (peptide)
peptide: VSLARRPLPPLP
modifications: also: biotin (site not given here)
notes: Biotinylated for immobilisation in SPR; source: synthetic peptide (University of Pittsburgh Peptide Synthesis Core)
B2: Lyn SH3 domain (domain or fragment)
chain: EQGDIVVALYPYDGIHPDDLSFKKGEKMKVLEEHGEWWKAKSLLTKKEGFIPSNYVAKLNT

Columns and labels:
[1] = target: Lyn-YEEI (human, phosphotyrosine in the C-terminal tail (pTyr-Glu-Glu-Ile-Pro)); assay: cell-based or functional assay
[2] = target: Fyn-YEEI (human, phosphotyrosine in the C-terminal tail (pTyr-Glu-Glu-Ile-Pro)); assay: cell-based or functional assay
[3] = target: T1, c-Src SH3 domain (human, UniProt P12931-1 81-142); assay: SPR; Biacore 3000; biotinylated VSL12 immobilised to 80 RU on a streptavidin chip; domain proteins flowed in duplicate at 25°C in HBS-EP (10 mM HEPES pH 7.4, 150 mM NaCl, 3 mM EDTA, 0.05% P20); 180 s association, 300 s dissociation; double referenced; kinetic fit, 1:1 Langmuir model; conditions: both partners purified
T1 construct: human c-Src, SH3 domain, residues 81-142; Cloned into pET21a through NdeI and XhoI; source: E. coli Rosetta 2(DE3)pLysS, purified (anion exchange, IMAC, SEC)

[4] = target: T1, c-Src SH3 domain; assay: SPR; same runs as a1 (biotinylated VSL12 on a streptavidin chip, 25°C, HBS-EP); equilibrium responses against analyte concentration, steady state model; conditions: both partners purified
[5] = target: B1; assay: SPR; Biacore 3000; biotinylated VSL12 immobilised to 80 RU on a streptavidin chip; domain proteins flowed in duplicate at 25°C in HBS-EP (10 mM HEPES pH 7.4, 150 mM NaCl, 3 mM EDTA, 0.05% P20); 180 s association, 300 s dissociation; double referenced; kinetic fit, 1:1 Langmuir model; conditions: both partners purified
[6] = target: B1; assay: SPR; same runs as a1 (biotinylated VSL12 on a streptavidin chip, 25°C, HBS-EP); equilibrium responses against analyte concentration, steady state model; conditions: both partners purified

| Kact: VSL12 concentration at half-maximal activation of kinase activity (ADP Quest kinetic kinase assay, VSL12 0.1 to 300 µM, basal rate subtracted) [1] [µM] | Kact: VSL12 concentration at half-maximal activation of kinase activity (ADP Quest kinetic kinase assay, VSL12 0.1 to 300 µM, basal rate subtracted) [2] [µM] | Kd [3] [nM] | Kd [4] [nM] | Kd [5] [nM] | koff [5] [s⁻¹] | kon [5] [M⁻¹ s⁻¹] | Kd [6] [nM] | Binder |
| --- | --- | --- | --- | --- | --- | --- | --- | --- |
| 4.03 | 24.9 | 3420 | 4000 | – | – | – | – | B1 |
| – | – | – | – | 647 | 0.137 | 212000 | 562 | B2 |
